Series [1] concerns the target T1, WRKY54 DBD (Arabidopsis thaliana, UniProt Q93WU8 133-224).
T1 sequence: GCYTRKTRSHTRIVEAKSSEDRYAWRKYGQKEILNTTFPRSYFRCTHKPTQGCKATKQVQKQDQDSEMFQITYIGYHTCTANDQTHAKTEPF
Briefly: EMSA; QCM: 30 mM HEPES pH 7.5, 0.5 M NaCl, 2 mM TCEP, 25 °C, biotin-dsDNA on avidin; fEMSA: 30 min incubation in the dark, native PAGE 4 °C 120 V 90 min, buffer not stated. The settings on record: protein: recombinant, tags: N-term MBP + thrombin site, C-term 12xHis. In general terms: Mobility shift assays separate free from complexed probe on a gel.

The target in series [2] is T1, WRKY54 DBD. The experiment in a line: QCM; QCM: 30 mM HEPES pH 7.5, 0.5 M NaCl, 2 mM TCEP, 25 °C, biotin-dsDNA on avidin; fEMSA: 30 min incubation in the dark, native PAGE 4 °C 120 V 90 min, buffer not stated. The conditions noted are these: protein: recombinant; tags: N-term MBP + thrombin site; C-term 12xHis; label: 5' fluorescein (fEMSA); 5' biotin (QCM).
Series [3] deals with T1, WRKY54 DBD. The experiment in a line: QCM; text also gives 68 ± 11.73 pM for T13 (inconsistent); QCM: 30 mM HEPES pH 7.5, 0.5 M NaCl, 2 mM TCEP, 25 °C, biotin-dsDNA on avidin; fEMSA: 30 min incubation in the dark, native PAGE 4 °C 120 V 90 min, buffer not stated. The settings on record: protein: recombinant; tags: N-term MBP + thrombin site; C-term 12xHis; label: 5' fluorescein (fEMSA); 5' biotin (QCM).

[4] abbreviates: label: 5' fluorescein (fEMSA), 5' biotin (QCM).

This note sets out measurements from publication PMC8911475, “Insight into the Phylogeny and Binding Ability of WRKY Transcription Factors”.

B1: T8 (dsDNA)
DNA 1: GTTGACTA
DNA 2: TAGTCAAC
In the case of B1, the binding result with WRKY54 DBD [1] (setting [4]) is given as “no binding”.

B2: W2 (dsDNA)
DNA 1: GTTATTTGACCACC
DNA 2: GGTGGTCAAATAAC
B2: the binding result in the series with WRKY54 DBD [1] (label: 5' fluorescein) is on record as “no binding”.

B3: W1 (dsDNA)
DNA 1: TGTCCTTGACTACA
DNA 2: TGTAGTCAAGGACA
Consider B3, for which, in the series with WRKY54 DBD [1] (label: 5' fluorescein), the binding result is reported as “no binding”.

B4: W4 (dsDNA)
DNA 1: ATTTGTTGACTAGG
DNA 2: CCTAGTCAACAAAT
One may read the Kd as a measure of binding affinity in units of concentration. B4: in the series with WRKY54 DBD [2], the Kd was determined as 163 ± 10.1 pM.

B5: T13 (dsDNA)
DNA 1: ATTTGTTGACTAG
DNA 2: CTAGTCAACAAAT
For the molecule B5, in the series with WRKY54 DBD [3], the Kd was found to be 192 ± 22.5 pM.

B6: T12a (dsDNA)
DNA 1: TTGTTGACTAGG
DNA 2: CCTAGTCAACAA
Turning to B6, the Kd in the series with WRKY54 DBD [2] turned out to be 47 ± 6.2 pM.

B7: T12 (dsDNA)
DNA 1: ATTTGTTGACTA
DNA 2: TAGTCAACAAAT
Turning to B7, the Kd in the series with WRKY54 DBD [2] was found to be 2200 ± 442 pM.

B8: T6 (dsDNA)
DNA 1: TTGACT
DNA 2: AGTCAA
Regarding B8, in the series with WRKY54 DBD [1] (setting [4]), the binding result is given as “no binding”.

B9: T10 (dsDNA)
DNA 1: GTTGACTAGG
DNA 2: CCTAGTCAAC
With B9, the binding result with WRKY54 DBD [1] (setting [4]) is on record as “no binding”.

B10: W3 (dsDNA)
DNA 1: TTAACTTGACCCAA
DNA 2: TTGGGTCAAGTTAA
Regarding B10, in the series with WRKY54 DBD [1] (label: 5' fluorescein), the binding result is reported as “no binding”.
